1 substance from US20240269176A1 can be followed below.

The target in test [1] is VL1VH3-CD8ATD-CD137CSD-CD3zSSD fusion.
Test [2] addresses VH3VL1-CD8ATD-CD137CSD-CD3zSSD fusion.
The target in test [3] is VH2VL1-CD8ATD-CD137CSD-CD3zSSD fusion.
In test [4] the target is VH1VL1-CD8ATD-CD137CSD-CD3zSSD fusion.
Sequence of VH1VL1-CD8ATD-CD137CSD-CD3zSSD fusion (chain, as listed by the source): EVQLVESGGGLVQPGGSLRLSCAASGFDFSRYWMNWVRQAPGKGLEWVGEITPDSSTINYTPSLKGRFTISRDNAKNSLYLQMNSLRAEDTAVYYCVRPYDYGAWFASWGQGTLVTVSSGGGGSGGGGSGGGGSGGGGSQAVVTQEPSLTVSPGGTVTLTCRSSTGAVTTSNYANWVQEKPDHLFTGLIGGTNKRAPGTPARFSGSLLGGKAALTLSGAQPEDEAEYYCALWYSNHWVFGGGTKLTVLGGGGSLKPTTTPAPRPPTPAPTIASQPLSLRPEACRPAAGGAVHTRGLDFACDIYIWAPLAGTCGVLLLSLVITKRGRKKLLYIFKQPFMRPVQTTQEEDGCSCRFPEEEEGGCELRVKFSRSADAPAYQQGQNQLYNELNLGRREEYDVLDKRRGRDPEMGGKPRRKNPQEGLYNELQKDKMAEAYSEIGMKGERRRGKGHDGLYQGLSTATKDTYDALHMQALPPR

Sequence of VL1VH3-CD8ATD-CD137CSD-CD3zSSD fusion (chain, as listed by the source): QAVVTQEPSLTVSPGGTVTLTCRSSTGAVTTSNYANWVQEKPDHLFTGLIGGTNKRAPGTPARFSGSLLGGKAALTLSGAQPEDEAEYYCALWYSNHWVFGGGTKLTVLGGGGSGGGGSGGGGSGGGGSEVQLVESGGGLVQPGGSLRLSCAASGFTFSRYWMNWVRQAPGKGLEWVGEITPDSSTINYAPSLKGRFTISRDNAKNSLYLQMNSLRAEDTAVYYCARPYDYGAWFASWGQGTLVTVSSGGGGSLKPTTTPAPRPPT
Sequence of VH2VL1-CD8ATD-CD137CSD-CD3zSSD fusion (chain, as listed by the source): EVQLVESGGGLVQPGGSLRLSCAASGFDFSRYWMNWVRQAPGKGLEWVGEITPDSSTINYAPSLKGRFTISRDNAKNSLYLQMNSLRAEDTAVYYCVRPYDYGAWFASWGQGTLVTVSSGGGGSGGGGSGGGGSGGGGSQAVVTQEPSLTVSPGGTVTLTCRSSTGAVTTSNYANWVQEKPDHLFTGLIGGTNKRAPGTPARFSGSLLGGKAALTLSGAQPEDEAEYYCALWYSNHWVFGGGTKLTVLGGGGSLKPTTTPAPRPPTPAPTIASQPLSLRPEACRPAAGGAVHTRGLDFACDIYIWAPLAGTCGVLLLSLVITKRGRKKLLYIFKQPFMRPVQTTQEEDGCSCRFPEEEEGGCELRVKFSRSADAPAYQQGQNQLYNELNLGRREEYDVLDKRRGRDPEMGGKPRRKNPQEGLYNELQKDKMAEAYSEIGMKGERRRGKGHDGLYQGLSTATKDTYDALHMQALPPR
Sequence of VH3VL1-CD8ATD-CD137CSD-CD3zSSD fusion (chain, as listed by the source): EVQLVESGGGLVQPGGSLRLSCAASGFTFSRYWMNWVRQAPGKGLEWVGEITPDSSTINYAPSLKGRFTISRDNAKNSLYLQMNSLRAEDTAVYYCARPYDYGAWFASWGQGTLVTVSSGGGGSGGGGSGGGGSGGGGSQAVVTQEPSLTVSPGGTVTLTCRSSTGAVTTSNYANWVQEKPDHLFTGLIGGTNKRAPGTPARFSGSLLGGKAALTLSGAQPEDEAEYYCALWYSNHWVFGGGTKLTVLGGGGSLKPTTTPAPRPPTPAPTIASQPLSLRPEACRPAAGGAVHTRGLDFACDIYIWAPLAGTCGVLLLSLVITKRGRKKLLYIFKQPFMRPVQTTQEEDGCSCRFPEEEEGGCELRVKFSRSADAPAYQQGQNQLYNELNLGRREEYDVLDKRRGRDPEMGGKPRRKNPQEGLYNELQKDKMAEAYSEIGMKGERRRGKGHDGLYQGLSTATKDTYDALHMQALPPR

In test [1], “anti-CD20 (GA101) D246A P329G IgG1 (antibody)” registered an EC50 of NFAT-luciferase activation of anti-P329G CAR Jurkat cells, WSUDLCL2 target cells (5:1); VL1 x VH 3 of 6.19 pM. In test [2], this substance had an EC50 of NFAT-luciferase activation of anti-P329G CAR Jurkat cells, WSUDLCL2 target cells (5:1); VH3 x VL1 of 5.82 pM. Moreover, the EC50 of NFAT-luciferase activation of anti-P329G CAR Jurkat cells, WSUDLCL2 target cells (5:1); table row VH2 x VL1 in test [3] amounted to 10.4 pM. Besides, in test [4], the EC50 of NFAT-luciferase activation of anti-P329G CAR Jurkat cells, WSUDLCL2 target cells (5:1); VH1 x VL1 was determined as 8.14 pM.
